Results on one protein are retold here after PMC3466254, “Cthrc1, a Novel Circulating Hormone Regulating Metabolism” (PLoS ONE, 2012).

The series deals with the molecule itself. Description: non-reducing SDS-PAGE with autoradiography; 1 µl of plasma of Cthrc1 null mice taken 30 min after intra-arterial injection of purified 125I-Cthrc1; SDS-PAGE under non-reducing conditions, autoradiography.

B1: rat Cthrc1 with a C terminal myc/6×His tag, labeled with 125I (natural protein, UniProt Q8CG08 33-245, looked up)
chain: SENPKVKQKALIRQREVVDLYNGMCLQGPAGVPGRDGSPGANGIPGTPGIPGRDGFKGEKGECLRESFEESWTPNYKQCSWSSLNYGIDLGKIAECTFTKMRSNSALRVLFSGSLRLKCRNACCQRWYFTFNGAECSGPLPIEAIIYLDQGSPELNSTINIHRTSSVEGLCEGIGAGLVDVAIWVGTCSDYPKGDASTGWNSVSRIIIEELPK
modifications: labeled with 125I (iodination tubes); residues not stated
notes: Cthrc1 (collagen triple helix repeat containing 1), rat; secreted into the conditioned medium; also called 125I-Cthrc1; 125I-labeled Cthrc1
On to B1, for which the binding result was “binds”.
